Tests used:
生物素标记人CSF1R Fc蛋白 = target: T1, 生物素标记人CSF1R Fc蛋白 (human, UniProt P07333 20-512, biotin-labelled (site not stated)); assay: binding assays of Example 2 (capture ELISA with biotin-labelled human CSF1R Fc; flow cytometry on 293F cells expressing human CSF1R), summarised in Table 2
T1 construct: range 20-512; also called CSF1R Fc biotin; 人CSF1R抗原; not shown: human IgG1 Fc tag at the C-terminus

重组人CSF1R带his标签的蛋白 = target: T2, 重组人CSF1R带his标签的蛋白 (human, UniProt P07333 20-512); assay: ELISA screen of hybridoma supernatant on coated human CSF1R-his
T2 construct: Bought protein used as coating antigen for hybridoma screening; also called 人CSF1R-his; CSF1R-his蛋白抗原; not shown: his tag
T2 sequence (P07333 20-512 limits assumed): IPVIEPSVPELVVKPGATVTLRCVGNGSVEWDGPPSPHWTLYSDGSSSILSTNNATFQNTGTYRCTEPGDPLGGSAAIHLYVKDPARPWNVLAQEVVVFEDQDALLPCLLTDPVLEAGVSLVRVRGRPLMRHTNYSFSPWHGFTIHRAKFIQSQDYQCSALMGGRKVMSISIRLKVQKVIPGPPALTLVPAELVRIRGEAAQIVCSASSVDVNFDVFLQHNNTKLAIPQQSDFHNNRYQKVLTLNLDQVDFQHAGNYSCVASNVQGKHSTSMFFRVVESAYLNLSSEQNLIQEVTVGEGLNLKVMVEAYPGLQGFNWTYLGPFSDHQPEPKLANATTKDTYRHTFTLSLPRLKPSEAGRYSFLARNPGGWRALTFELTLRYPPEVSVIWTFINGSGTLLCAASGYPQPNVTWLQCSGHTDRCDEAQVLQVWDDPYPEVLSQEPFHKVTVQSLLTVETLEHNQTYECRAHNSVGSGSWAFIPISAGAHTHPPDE

T1 sequence (P07333 20-512 limits assumed): as above

B1: 1G6 抗人CSF-1R小鼠单克隆抗体 (antibody, V domains shown)
VH: QIQLVQSGPELKKPGETVKISCKASGYTFIIYGMNWVKQTPGRGLKWMGWINTYTGEPTYADDFKGRFAFSLETSASTASLQINNLKNEDTATYFCAREVYDGYPSHYAMDYWGQGTSVTVSS
VL: DIVMTQAAPSVPVTPGESVSISCRSSKSLLHSNGNTYLYWFLQRPGQSPQLLIYWMSNLASGVPDRFSGSGSGTAFTLRISRVEAEDVGVYYCLQHLEYPYTFGGGTKLEIK
notes: also called 1G6抗体; 本发明的抗人CSF-1R单克隆抗体
B1: binds (生物素标记人CSF1R Fc蛋白); binds (重组人CSF1R带his标签的蛋白).
